The target in this assay is GST-Keap1 (human, UniProt Q14145 1-624). Put plainly: pull-down.
Sequence of GST-Keap1 (Q14145 whole entry): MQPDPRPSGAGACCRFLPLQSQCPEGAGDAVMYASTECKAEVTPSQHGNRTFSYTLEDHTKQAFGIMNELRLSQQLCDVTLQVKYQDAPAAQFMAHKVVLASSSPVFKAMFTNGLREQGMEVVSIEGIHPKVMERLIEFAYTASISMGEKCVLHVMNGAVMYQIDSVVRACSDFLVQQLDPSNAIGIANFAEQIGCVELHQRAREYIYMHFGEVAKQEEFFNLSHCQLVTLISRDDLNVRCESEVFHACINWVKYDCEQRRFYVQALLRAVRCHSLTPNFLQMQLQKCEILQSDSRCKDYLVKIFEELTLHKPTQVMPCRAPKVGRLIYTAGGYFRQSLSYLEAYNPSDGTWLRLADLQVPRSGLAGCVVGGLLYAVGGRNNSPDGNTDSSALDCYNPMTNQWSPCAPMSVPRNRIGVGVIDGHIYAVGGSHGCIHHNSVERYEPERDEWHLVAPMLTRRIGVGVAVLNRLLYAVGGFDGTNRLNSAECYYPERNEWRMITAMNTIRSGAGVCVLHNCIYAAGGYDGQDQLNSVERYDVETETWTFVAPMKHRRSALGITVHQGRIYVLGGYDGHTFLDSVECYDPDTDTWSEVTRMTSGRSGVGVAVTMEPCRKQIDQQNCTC

B1: His-SRX (natural protein)
chain: not shown
As for B1, the binding result is recorded as “binds”.
